Measured values reported in the supplement of paper PMC9732359.
± gives the uncertainty stated by the source.

Test: protein stability index of a GFP-peptide fusion (yeast GPS) (PSI 1-4); higher = more stable; sorted into four equal gates, so the index is relative within each strain
Procedure, shortened: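 For each peptide, the protein stability index sums the read frequency in every gate after multiplying it by the gate number. Read frequencies came from plasmids that were PCR-amplified from each gate and Illumina-sequenced, with reads assigned to strains by barcodes. The gates were four equal bins of GFP/Cherry fluorescence ratio applied to mid-log yeast in leucine-free medium carrying a pooled library of tiled 17-residue yeast protein peptides fused downstream of GFP on a Cherry-expressing plasmid.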

| Sequence | protein stability index (doa10∆) | protein stability index (pdr5∆) | protein stability index (san1∆) | protein stability index (ubr1∆) |
| --- | --- | --- | --- | --- |
| NNNNTTTTTTTTNNNNT [SWI1] | 3.07 ± 0.031 | 2.68 ± 0.032 | 3.363 ± 0.023 | 3.128 ± 0.02 |
| SNIELAFSSVEHIIRDV [COB] | 3 ± 0.087 | 2.78 ± 0.1 | 2.79 ± 0.079 | 2.73 ± 0.11 |
| AAPPSTNFEILNEMLNT [DIS3] | 2.9 ± 0.078 | 2.83 ± 0.11 | 2.95 ± 0.075 | 3.04 ± 0.061 |
| DQDKVNFASGDNNTASN [RPB3] | 2.85 ± 0.16 | 2.36 ± 0.14 | – | 2.5 ± 0.18 |
| FNFVLLGQIGACHVEVP [COB] | 1.43 ± 0.085 | 1.88 ± 0.071 | 1.2 ± 0.17 | 1.6 ± 0.089 |
| SKQDLIHSLIPVAKWFV [SIN4] | 2.4 ± 0.076 | 2.99 ± 0.054 | 2.9 ± 0.061 | 2.78 ± 0.08 |
| NKYPELLGKDNEDDALI [AAR2] | 3.33 ± 0.1 | 3.19 ± 0.089 | 3.33 ± 0.051 | 3.02 ± 0.11 |
| ASNGRNKKGRGHVKPVR [RPS26A] | 3.46 ± 0.075 | 3.35 ± 0.086 | 3.45 ± 0.082 | 3.3 ± 0.056 |
| FEGDSNMLICAPTGSGK [BRR2] | 1.79 ± 0.096 | 1.43 ± 0.075 | 1.71 ± 0.14 | 2.18 ± 0.071 |
| ATDPVAAKPDNLANFSN [SWP82] | 3.27 ± 0.077 | 3.18 ± 0.084 | 3.21 ± 0.051 | 3.26 ± 0.057 |
| DVPGRELKYELIAEESE [RPB2] | 3.07 ± 0.19 | 3.01 ± 0.12 | – | – |
| SLSNPNSTATMQHNPLA [PGD1] | 2.86 ± 0.04 | 3.1 ± 0.039 | 2.96 ± 0.034 | 2.967 ± 0.029 |
| PKVTPQMMQQAQQKLKQ [SRP54] | 1.42 ± 0.25 | 1.18 ± 0.18 | – | 1.48 ± 0.24 |
| DHFLSMCQNPMQKPVPF [FAS1] | 2.93 ± 0.18 | 3.01 ± 0.14 | – | 2.42 ± 0.081 |
| NNVVINFKDMSHVNKYG [PRP8] | 2.64 ± 0.1 | 2.6 ± 0.079 | 2.75 ± 0.059 | 2.57 ± 0.075 |
| CVNLSLFDARFERKNPH [SRB8] | 3.2 ± 0.089 | 3.16 ± 0.061 | 3.34 ± 0.083 | 3.17 ± 0.053 |
| DSFIEKIIPKDISATQL [ITC1] | 2.96 ± 0.1 | 3.17 ± 0.12 | 3.07 ± 0.086 | 3.13 ± 0.085 |
| MEYHISNTDETKGENYQ [FAS2] | 3.03 ± 0.12 | 3.22 ± 0.14 | 2.75 ± 0.2 | – |
| SAARGLSLVYEIGGSDL [ECM29] | 2.18 ± 0.058 | 1.94 ± 0.065 | 3.33 ± 0.067 | 1.73 ± 0.056 |
| LRQQQQQQDQPEQSEQP [RPN10] | 3.21 ± 0.09 | 3.28 ± 0.076 | 2.74 ± 0.081 | 3.17 ± 0.064 |
| NFAHSDSLSVPKVSAGD [SIR4] | 2.95 ± 0.11 | 2.98 ± 0.12 | 2.76 ± 0.054 | 3.27 ± 0.11 |
| TELTHHLLPRNEWIKAQ [QCR7] | 2.37 ± 0.068 | 2.16 ± 0.073 | 2.04 ± 0.12 | 1.85 ± 0.046 |
| LSCVKNDTISEDILQGI [NUT1] | 2.69 ± 0.067 | 2.35 ± 0.073 | 2.53 ± 0.11 | 3.17 ± 0.076 |
| NVTTILDEIFSGCDSTK [ECM29] | 2.28 ± 0.12 | 2.8 ± 0.087 | 2.48 ± 0.073 | 2.63 ± 0.042 |
| FEKNTILQQRSKINSTE [MED4] | 2.79 ± 0.073 | 3.07 ± 0.084 | 2.81 ± 0.07 | 3.15 ± 0.086 |
| LLMRLEGNYRNLNNLKQ [RPB8] | 3.29 ± 0.14 | 3.13 ± 0.13 | 3.22 ± 0.2 | 3.37 ± 0.082 |

| Sequence | protein stability index (doa10∆) | protein stability index (pdr5∆) | protein stability index (san1∆) | protein stability index (ubr1∆) |
| --- | --- | --- | --- | --- |
| ERSDLLPYLSDTCAVSF [YJR042W/NUP85] | 2.31 ± 0.099 | 2.46 ± 0.06 | 2.59 ± 0.076 | 2.45 ± 0.041 |
| NNEKVVQYLRSVQDLGG [YML031W/NDC1] | 3.1 ± 0.2 | 3.04 ± 0.27 | 3.44 ± 0.19 | 3.61 ± 0.24 |
| TNTSKQFQKARNNVMLL [SRB8] | 2.65 ± 0.14 | 3 ± 0.066 | 2.94 ± 0.06 | 2.92 ± 0.083 |
| EMGKTDKSTKTAEAPTL [YOR098C/NUP1] | 3.1 ± 0.16 | 3.25 ± 0.15 | 2.89 ± 0.064 | 2.86 ± 0.14 |
| AGDWKYDRQLSSLFLDG [FAS2] | 2.16 ± 0.057 | 2.81 ± 0.065 | 2.34 ± 0.11 | 2.23 ± 0.056 |
| PGSVEEVDKSKLITTYI [YDL116W/NUP84] | 3.39 ± 0.18 | 3.33 ± 0.26 | – | 3.42 ± 0.18 |
| EEIEPKLEKLRNEKRMF [SMC2] | 2.89 ± 0.11 | 3.21 ± 0.074 | 3.02 ± 0.1 | 3.21 ± 0.079 |
| EILILINDPTNKEYTLV [SIN4] | 1.77 ± 0.072 | 2.05 ± 0.067 | 2.06 ± 0.1 | 2.23 ± 0.14 |
| YGNPTSKESWRYDWYQP [RTT102] | 2.05 ± 0.1 | 2.27 ± 0.082 | 2 ± 0.071 | 2.03 ± 0.035 |
| DCIIRLPVKWETTTQFK [FAS1] | 1.74 ± 0.083 | 2.03 ± 0.074 | 1.94 ± 0.091 | 2.43 ± 0.11 |
| QIRACKDLKHIIYYKFN [PRP8] | 1.72 ± 0.037 | 1.73 ± 0.037 | 1.84 ± 0.056 | 1.59 ± 0.042 |
| LSKFFFFIFVFNFVLLG [COB] | 1.42 ± 0.13 | 1.19 ± 0.12 | 1.09 ± 0.25 | 1.22 ± 0.15 |
| LESINEGNQIIVFVHSR [BRR2] | 1.76 ± 0.073 | 1.88 ± 0.064 | 1.62 ± 0.066 | 1.76 ± 0.071 |
| IQIDEETENSESIASSN [MCD1] | 2.4 ± 0.071 | 2.73 ± 0.072 | 2.5 ± 0.082 | 2.76 ± 0.051 |
| EIEDGQDGGVTPYSNES [RPO21] | 3.49 ± 0.1 | 3.35 ± 0.069 | 3.38 ± 0.049 | 3.22 ± 0.08 |
| RSVDRAGRKFKSRRCDD [POP4] | 3.1 ± 0.079 | 3.16 ± 0.078 | 3.33 ± 0.071 | 3.18 ± 0.075 |
| RIDAFNALEHKYFTESD [SSN3] | 2.72 ± 0.055 | 3 ± 0.046 | 2.95 ± 0.05 | 3.05 ± 0.052 |
| FKLSSESVIEQIVKYAR [RPS13] | 2.54 ± 0.1 | 2.97 ± 0.11 | 2.63 ± 0.097 | 2.72 ± 0.043 |
| ESLVHSALCILKEQELV [BRR2] | 2.35 ± 0.2 | 1.77 ± 0.079 | 1.92 ± 0.14 | 2.51 ± 0.13 |
| QITKFPKYRDNLATWYH [SSN3] | 2.77 ± 0.065 | 2.88 ± 0.077 | 2.7 ± 0.066 | 2.37 ± 0.041 |
| HAMGGREGLIDTAVKTA [RPO21] | 1.24 ± 0.076 | 1.35 ± 0.065 | 1.23 ± 0.15 | 1.17 ± 0.054 |
| VNDEEEHKQLVAEIVQN [RPC82] | 2.64 ± 0.12 | 2.54 ± 0.19 | 2.56 ± 0.14 | 1.66 ± 0.098 |
| SSSSDIIVPDLIELKSD [YML103C/NUP188] | 2.71 ± 0.085 | 3.15 ± 0.059 | 2.67 ± 0.13 | 2.7 ± 0.07 |
| LNDRQEEISRLQRDLIQ [YIL149C/MLP2] | 2.72 ± 0.11 | 3.25 ± 0.25 | 3.07 ± 0.26 | 3.05 ± 0.12 |
| VKKVVKEQTEAAKKSEK [RPL34A] | 3.37 ± 0.14 | 3.4 ± 0.1 | 3.19 ± 0.038 | 3.31 ± 0.076 |
